One block for each binder: values may come before it.
Tests used:
[1] = biological target: T1, COUP-TFII-GST (mouse, UniProt P43135 1-414); assay: native gel or EMSA
T1 sequence (looked up): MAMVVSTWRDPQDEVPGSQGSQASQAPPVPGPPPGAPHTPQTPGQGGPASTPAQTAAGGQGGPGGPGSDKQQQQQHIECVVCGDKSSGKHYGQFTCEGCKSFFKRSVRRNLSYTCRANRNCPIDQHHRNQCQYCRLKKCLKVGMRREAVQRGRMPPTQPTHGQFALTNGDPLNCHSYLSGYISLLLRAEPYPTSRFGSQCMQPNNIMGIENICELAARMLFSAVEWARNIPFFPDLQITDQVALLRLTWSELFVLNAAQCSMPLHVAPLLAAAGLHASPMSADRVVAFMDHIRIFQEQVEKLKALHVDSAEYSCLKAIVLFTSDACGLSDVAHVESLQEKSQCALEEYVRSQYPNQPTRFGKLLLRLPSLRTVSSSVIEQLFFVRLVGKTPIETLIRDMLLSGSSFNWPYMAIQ

[2] = biological target: T2, recombinant COUP-TFII (construct not told for this experiment) (mouse, UniProt P43135 1-414); assay: native gel or EMSA
T2 sequence (looked up): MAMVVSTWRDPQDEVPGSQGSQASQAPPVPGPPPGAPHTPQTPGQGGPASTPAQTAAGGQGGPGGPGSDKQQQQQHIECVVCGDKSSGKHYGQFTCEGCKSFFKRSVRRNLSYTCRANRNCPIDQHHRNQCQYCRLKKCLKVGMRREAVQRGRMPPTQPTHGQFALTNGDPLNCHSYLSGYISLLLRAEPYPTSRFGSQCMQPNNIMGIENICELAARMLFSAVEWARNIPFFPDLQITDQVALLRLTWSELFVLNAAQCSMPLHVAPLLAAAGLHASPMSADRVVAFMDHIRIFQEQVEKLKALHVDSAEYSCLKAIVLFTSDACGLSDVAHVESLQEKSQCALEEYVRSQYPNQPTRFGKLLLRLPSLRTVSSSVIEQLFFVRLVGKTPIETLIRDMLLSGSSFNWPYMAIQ

[3] = biological target: T3, COUP-TFII-GST (mouse, UniProt P43135 1-414); assay: EMSA
T3 sequence: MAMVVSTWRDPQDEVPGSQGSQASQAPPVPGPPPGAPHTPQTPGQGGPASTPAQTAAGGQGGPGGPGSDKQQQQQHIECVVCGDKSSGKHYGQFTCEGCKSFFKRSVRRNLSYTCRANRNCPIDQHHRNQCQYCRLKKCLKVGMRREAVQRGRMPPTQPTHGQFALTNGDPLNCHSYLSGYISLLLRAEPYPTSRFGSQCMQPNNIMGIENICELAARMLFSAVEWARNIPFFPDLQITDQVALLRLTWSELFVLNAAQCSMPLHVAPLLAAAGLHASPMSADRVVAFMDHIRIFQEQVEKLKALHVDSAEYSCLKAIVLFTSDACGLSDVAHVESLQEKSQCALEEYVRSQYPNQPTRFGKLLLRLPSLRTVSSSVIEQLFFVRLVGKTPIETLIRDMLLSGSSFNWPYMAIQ

[4] = biological target: T4, COUP-TFII;NKX2-1 (mouse;, UniProt P43135;P50220 1-414;1-372, |); assay: EMSA
T4 sequence 1: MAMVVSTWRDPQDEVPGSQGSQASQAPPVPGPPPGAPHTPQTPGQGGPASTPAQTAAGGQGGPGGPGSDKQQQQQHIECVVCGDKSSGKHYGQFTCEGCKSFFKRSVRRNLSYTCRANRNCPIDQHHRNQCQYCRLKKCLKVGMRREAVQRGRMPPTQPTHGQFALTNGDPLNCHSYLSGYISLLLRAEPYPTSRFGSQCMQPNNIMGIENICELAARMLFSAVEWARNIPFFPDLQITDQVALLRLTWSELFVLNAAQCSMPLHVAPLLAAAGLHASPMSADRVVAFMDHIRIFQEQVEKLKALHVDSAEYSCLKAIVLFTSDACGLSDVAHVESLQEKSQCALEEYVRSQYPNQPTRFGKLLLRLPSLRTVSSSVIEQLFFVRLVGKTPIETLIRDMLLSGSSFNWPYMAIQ
T4 sequence 2: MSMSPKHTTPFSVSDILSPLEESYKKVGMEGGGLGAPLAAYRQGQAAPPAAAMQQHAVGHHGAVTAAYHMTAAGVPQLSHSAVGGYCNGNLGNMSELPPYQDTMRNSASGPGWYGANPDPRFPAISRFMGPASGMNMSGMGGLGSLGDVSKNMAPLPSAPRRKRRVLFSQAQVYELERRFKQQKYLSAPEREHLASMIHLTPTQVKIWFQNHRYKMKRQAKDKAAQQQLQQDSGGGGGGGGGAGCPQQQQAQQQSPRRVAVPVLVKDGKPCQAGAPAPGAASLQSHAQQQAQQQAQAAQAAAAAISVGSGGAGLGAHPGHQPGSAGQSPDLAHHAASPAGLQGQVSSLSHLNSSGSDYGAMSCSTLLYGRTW

- binding result [1]: binds
- binding result [2]: binds
B1: recombinant NKX2-3 (natural protein, mouse, UniProt P97334 1-362, looked up)
chain: MMLPSPVTSTPFSVKDILNLEQQRHFHGAHLQAELEQHFHSAPCMLATAEGTQFSDAGEEDEEEEGEKLSYLNSLAAAEGHGDSGLCPQSYVHTVLRDACSGPKEQEEEVVSERSQKSCQLKKSLEAAGDCKTSEDGERPKPRSRRKPRVLFSQAQVFELERRFKQQRYLSAPEREHLASSLKLTSTQVKIWFQNRRYKCKRQRQDKSLELGTHAPPPPPRRVAVPVLVRDGKPCVTPSAQTYGSPYGVGAGAYSYNSFPAYGYGNSAAAAAAAAAAAAAAAAYSGSYGCAYPTGGGGGGGGTASAATTAMQPACSATGGGSFVNVSNLGGFGSGGGAQPLHQGAAAGSACTQGTLQGIRAW

B2: CE_ΔC_AB (dsDNA)
DNA 1: CCATGCACTTGAAAAAAAATGGAAAAACACCTCC
DNA 2: GGAGGTGTTTTTCCATTTTTTTTCAAGTGCATGG
- binding result [3]: no binding

B3: Nrp2 NCCE (dsDNA)
DNA 1: TTGCCAAATTATGTGACCTTTGGCAGACCAGCTG
DNA 2: CAGCTGGTCTGCCAAAGGTCACATAATTTGGCAA
- binding result [4]: binds

From doi:10.1101/2022.02.17.480956 (bioRxiv, 2022)
